Experimental data taken from paper PMC3120740, “WRKY Transcription Factors Involved in Activation of SA Biosynthesis Genes”.
Where a chain is given by its changes, count along the chain named.

B1: m2.7 (dsDNA)
DNA 1: ATTTCCCGGTATTTCACCTTGTCAAGATAT
DNA 2: ATATCTTGACAAGGTGAAATACCGGGAAAT
B2: m1+2 (dsDNA)
DNA 1: ATTTCCCGGTATTTCAATTTCCGGAGATAT
DNA 2: ATATCTCCGGAAATTGAAATACCGGGAAAT
B3: m2.5 (dsDNA)
DNA 1: ATTTCCCGGTATTTCAATTTGTCAGAATAT
DNA 2: ATATTCTGACAAATTGAAATACCGGGAAAT
B4: m2.3 (dsDNA)
DNA 1: B2 DNA 1 with C21G, C22T
DNA 2: B2 DNA 2 with G9A, G10C
B5: m2.1 (dsDNA)
DNA 1: ATTTCCCGGTATTTCAATGGGTCAAGATAT
DNA 2: ATATCTTGACCCATTGAAATACCGGGAAAT
B6: m2.2 (dsDNA)
DNA 1: B2 DNA 1 with G23C, G24A
DNA 2: B2 DNA 2 with C7T, C8G
B7: m2.8 (dsDNA)
DNA 1: ATTTCCCGGTATTTCAATTTGTCAAGGGAT
DNA 2: ATCCCTTGACAAATTGAAATACCGGGAAAT
B8: ICS1 -278 (dsDNA)
DNA 1: CTAATAATAATAGATCAAACAATTAACTGA
DNA 2: TCAGTTAATTGTTTGATCTATTATTATTAG
B9: ICS1 -725 (dsDNA)
DNA 1: ATTTTAGAAATGTGTCAAAATTTAAAGGAG
DNA 2: CTCCTTTAAATTTTGACACATTTCTAAAAT
B10: m1 (dsDNA)
DNA 1: B5 DNA 1 with G19T, G20T
DNA 2: B1 DNA 2 with G13A, G14T
B11: m2.4 (dsDNA)
DNA 1: B3 DNA 1 with G25C, A26C
DNA 2: B3 DNA 2 with T5G, C6G
B12: ICS1 -844 WK-like box (dsDNA)
DNA 1: AATAGTATTGATTTTCCAAATTTAATTATA
DNA 2: TATAATTAAATTTGGAAAATCAATACTATT
B13: m2 (dsDNA)
DNA 1: ATTTCTGACTATTTCAATTTCCGGAGATAT
DNA 2: ATATCTCCGGAAATTGAAATAGTCAGAAAT
B14: ICS1 -648 (dsDNA)
DNA 1: TTGCAATTTGTAGTGACATGTAATGTTTTT
DNA 2: AAAAACATTACATGTCACTACAAATTGCAA

Tests used:
Details in all cases: protein: recombinant; tags: N-terminal GST (pGEX-KG); label: 32P-dCTP end-fill (Klenow); 5'-GGG overhangs filled in with Klenow
GST-WRKY28 [1] = target: T1, GST-WRKY28 (Arabidopsis thaliana, UniProt Q8VWJ2 1-318); test: EMSA; 0.5 ug protein, ~0.01 pmol probe; 3 uL 5x buffer (20% glycerol, 5 mM MgCl2, 2.5 mM EDTA, 2.5 mM DTT, 250 mM NaCl, 50 mM Tris-HCl pH 7.5, 0.25 mg/mL poly(dI-dC)) in 14 uL + 1 uL probe (final about 50 mM NaCl, 10 mM Tris, 1 mM MgCl2); room temperature, 20 min
GST-WRKY28 [2] = target: T1, GST-WRKY28; test: EMSA; as strong as wild type; 0.5 ug protein, ~0.01 pmol probe; 3 uL 5x buffer (20% glycerol, 5 mM MgCl2, 2.5 mM EDTA, 2.5 mM DTT, 250 mM NaCl, 50 mM Tris-HCl pH 7.5, 0.25 mg/mL poly(dI-dC)) in 14 uL + 1 uL probe (final about 50 mM NaCl, 10 mM Tris, 1 mM MgCl2); room temperature, 20 min
GST-WRKY28 [3] = target: T1, GST-WRKY28; test: EMSA; unaltered binding; 0.5 ug protein, ~0.01 pmol probe; 3 uL 5x buffer (20% glycerol, 5 mM MgCl2, 2.5 mM EDTA, 2.5 mM DTT, 250 mM NaCl, 50 mM Tris-HCl pH 7.5, 0.25 mg/mL poly(dI-dC)) in 14 uL + 1 uL probe (final about 50 mM NaCl, 10 mM Tris, 1 mM MgCl2); room temperature, 20 min

T1 sequence (Q8VWJ2 whole entry): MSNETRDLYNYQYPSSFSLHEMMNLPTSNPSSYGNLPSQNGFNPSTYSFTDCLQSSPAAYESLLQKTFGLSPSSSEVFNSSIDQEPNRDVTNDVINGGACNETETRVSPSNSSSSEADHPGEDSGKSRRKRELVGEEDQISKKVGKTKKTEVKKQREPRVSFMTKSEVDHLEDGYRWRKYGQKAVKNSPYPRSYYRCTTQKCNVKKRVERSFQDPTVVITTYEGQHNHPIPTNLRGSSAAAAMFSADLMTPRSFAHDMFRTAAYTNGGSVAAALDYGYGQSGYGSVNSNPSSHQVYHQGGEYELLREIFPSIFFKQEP

Row | Binder | binding result (GST-WRKY28 [1]) | further results
1 | B1 | no binding | –
2 | B2 | no binding | –
3 | B3 | – | binding result (GST-WRKY28 [2]): binds
4 | B4 | no binding | –
5 | B5 | binds | –
6 | B6 | no binding | –
7 | B7 | – | binding result (GST-WRKY28 [3]): binds
8 | B8 | no binding | –
9 | B9 | no binding | –
10 | B10 | binds | –
11 | B11 | binds | –
12 | B12 | no binding | –
13 | B13 | binds | –
14 | B14 | no binding | –
